Molecular target: T1, CRBN (Homo sapiens, UniProt Q96SW2)
T1 chain: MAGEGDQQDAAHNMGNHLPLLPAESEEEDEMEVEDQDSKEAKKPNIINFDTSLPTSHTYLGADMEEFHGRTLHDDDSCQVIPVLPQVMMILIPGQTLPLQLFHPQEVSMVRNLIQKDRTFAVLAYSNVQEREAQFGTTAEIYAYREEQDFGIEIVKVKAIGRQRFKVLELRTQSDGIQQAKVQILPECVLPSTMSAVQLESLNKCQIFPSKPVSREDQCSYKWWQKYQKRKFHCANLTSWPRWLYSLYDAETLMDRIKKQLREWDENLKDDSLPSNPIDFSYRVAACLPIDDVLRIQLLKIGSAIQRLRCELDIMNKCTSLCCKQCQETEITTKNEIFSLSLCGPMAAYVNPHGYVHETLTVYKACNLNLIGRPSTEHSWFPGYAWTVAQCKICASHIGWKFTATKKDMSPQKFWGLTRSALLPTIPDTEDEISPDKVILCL
Assay: TR-FRET

- Ki: 0.165 µM
B1: IKZF1 ZF2-ZF3 143-243(Δ197-238) (protein)
chain: RPFQCNQCGASFTQKGNLLRHIKLHSGEKPFKCHLCNYACRRRDALTGHLRTHSVGKPHKCGYCGRSYKQRSSLEEHKERCHNYLESMGLPGTLYPVIKEE
modifications: pomalidomide
